The results in this text go back to PMC6851490, “Target highlights in CASP13: Experimental target structures through the eyes of their authors” (Proteins, 2019).

One data set has as its target T1, Bd2924 (Bdellovibrio bacteriovorus, UniProt Q6MJ59).
T1 construct: crystal structure residues 3 to 505; homo-tetramer (dimer of dimers)
T1 sequence (Q6MJ59 3-505): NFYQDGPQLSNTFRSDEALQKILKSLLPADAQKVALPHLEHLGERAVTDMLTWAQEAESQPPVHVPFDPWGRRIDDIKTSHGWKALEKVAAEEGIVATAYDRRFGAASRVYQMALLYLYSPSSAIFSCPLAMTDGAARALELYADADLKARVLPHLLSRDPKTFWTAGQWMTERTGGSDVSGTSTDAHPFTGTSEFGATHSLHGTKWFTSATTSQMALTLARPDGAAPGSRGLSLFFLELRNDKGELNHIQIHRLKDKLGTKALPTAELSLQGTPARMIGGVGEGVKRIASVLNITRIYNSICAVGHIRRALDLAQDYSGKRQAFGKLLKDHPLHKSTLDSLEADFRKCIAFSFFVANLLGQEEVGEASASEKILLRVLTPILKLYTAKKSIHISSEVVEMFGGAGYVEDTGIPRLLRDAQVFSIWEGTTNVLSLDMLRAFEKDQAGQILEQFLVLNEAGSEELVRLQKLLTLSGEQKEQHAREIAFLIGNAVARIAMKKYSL
The data set can be described thus: X-ray crystal structure, […] Å. The conditions noted are these: without C10-CoA; one FAD per monomer at the dimer interface. It is filed as binding.

Data set [1] concerns the target Afp7, tube initiator of the antifeeding prophage (AFP) (Serratia entomophila). The data set is described as follows: cryo-EM structure; needle of the AFP particle, threefold symmetric, 3.4 Å, PDB 6RBK.
Data set [2] deals with Afp8, needle protein of the antifeeding prophage (AFP) (Serratia entomophila). Described as above.
The target in data set [3] is Afp16, cap protein of the antifeeding prophage (AFP) (Serratia entomophila). The data set can be described thus: cryo-EM structure; apical end cap of the AFP particle in the extended state, sixfold symmetric, 3.3 Å, PDB 6RAP.
The target in data set [4] is Bd2924, putative acyl-CoA dehydrogenase (ACAD) from B. bacteriovorus (B. bacteriovorus). The data set can be described thus: SEC; Bd2924 in solution, size exclusion chromatography.
The target is the same in data set [5]. The data set is described as follows: crystal structure; Bd2924 with FAD, with and without C10-CoA, PDB 6SD8 and 6SDA.
In data set [6] the target is CdiI^Kp342 immunity protein (Klebsiella pneumoniae 342). The data set is described as follows: crystal structure; CdiA-CT•CdiI complex from K. pneumoniae 342, PDB 6CP9, 2.55 Å.
For data set [7], the target named is Pentafunctional AROM complex from Chaetomium thermophilum (Chaetomium thermophilum). The data set can be described thus: not stated; CtAROM before crystallisation; homodimer of about 340 kDa; method not given.
For data set [8] the target is unchanged. The data set can be described thus: crystal structure; CtAROM, X-ray, 3.00 Å, no PDB id.
Data set [9] concerns the target gp37 (distal part) of the Salmonella phage S16 long tail fiber (Salmonella phage S16). The data set can be described thus: crystal structure; distal part of gp37 connected to gp38, phage S16, PDB 6F45, 1.70 Å.
Data set [10] concerns the molecule itself. The data set is described as follows: crystal structure; recombinant AxlA with cleaved xyloglucan oligosaccharide, PDB 6DRU, 2.7 Å; quaternary assembly examined with EPPIC.
Data set [11] concerns the molecule itself. The data set is described as follows: crystal structure; MAJIN-TERB2 core complex, PDB 6GNX, X-ray, 2.90 Å.

For `Cc1cc2nc3c(=O)[nH]c(=O)nc-3n(C[C@H](O)[C@H](O)[C@H](O)COP(=O)(O)OP(=O)(O)OC[C@H]3O[C@@H](n4cnc5c(N)ncnc54)[C@H](O)[C@@H]3O)c2cc1C` [FAD], the “X-ray crystal structure, 1.51 Å” value at Bd2924 is given as “A single FAD molecule binds per monomer in a crevice located at the dimer interface”.

For orientation: stoichiometry N means a count of units in the complex or per binding partner. On to “Afp7, tube initiator of the antifeeding prophage (AFP) (natural protein)”, for which the stoichiometry N in data set [1] turned out to be 6.

“Afp8, needle protein of the antifeeding prophage (AFP) (natural protein)”: in data set [2], the stoichiometry N is 3.

Take “Afp16, cap protein of the antifeeding prophage (AFP) (natural protein)”: in data set [3], the stoichiometry N stood at 6.

“Bd2924, putative acyl-CoA dehydrogenase (ACAD) from B. bacteriovorus (enzyme)”: the stoichiometry N in data set [4] and in data set [5] was 4 each time.

“CdiI^Kp342 immunity protein (natural protein)” yielded a stoichiometry N in data set [6] of 2.

As for “Pentafunctional AROM complex from Chaetomium thermophilum (enzyme)”, the stoichiometry N in [7] and in data set [8] was 2 each time.

Regarding “gp37 (distal part) of the Salmonella phage S16 long tail fiber (domain or fragment)”, the stoichiometry N in data set [9] turned out to be 3.

B1: α-xylosidase from Aspergillus niger (AxlA), glycoside hydrolase family 31 (enzyme, UniProt G3XMN9 19-736, looked up)
chain: TYFAPNSTGLRIQHGFETILIQPFGYDGFRVRAWPFRPPSGNEISFIYDPPIEGYEDTAHGMSYDTATTGTEPRTLRNGNIILRTTGWGGTTAGYRLSFYRVNDDGSETLLTNEYAPLKSLNPRYYYWPGPGAEFSAEFSFSATPDEQIYGTGTQQDHMINKKGSVIDMVNFNSYIPTPVFMSNKGYAFIWNMPAEGRMEFGTLRTRFTAASTTLVDYVIVAAQPGDYDTLQQRISALTGRAPAPPDFSLGYIQSKLRYENQTEVELLAQNFHDRNIPVSMIVIDYQSWAHQGDWALDPRLWPNVAQMSARVKNLTGAEMMASLWPSVADDSVNYAALQANGLLSATRDGPGTTDSWNGSYIRNYDSTNPSARKFLWSMLKKNYYDKGIKNFWIDQADGGALGEAYENNGQSTYIESIPFTLPNVNYAAGTQLSVGKLYPWAHQQAIEEGFRNATDTKEGSACDHVSLSRSGYIGSQRFCSMIWSGDTTSVWDTLAVQVASGLSAAATGWGWWTVDAGGFEVDSTVWWSGNIDTPEYRELYVRWLAWTTFLPFMRTHGSRTCYFQDAYTCANEPWSYGASNTPIIVSYIHLRYQLGAYLKSIFNQFHLTGRSIMRPLYMDFEKTDPKISQLVSSNSNYTTQQYMFGPRLLVSPVTLPNVTEWPVYLPQTGQNNTKPWTYWWTNETYAGGQVVKVPAPLQHIPVFHLGSREELLSGNVF
notes: AxlA, Aspergillus niger, UniProt G3XMN9; also called T1009; source: recombinant
As for B1, the “stoichiometry N” value in data set [10] is 2.

B2: MAJIN (core of the human MAJIN-TERB2 complex) (domain or fragment)
chain: GSMSLKPFTYPFPETRFLHAGPNVYKFKIRYGKSIRGEEIENKEVITQELEDSVRVVLGNLDNLQPFATEHFIVFPYKSKWERVSHLKFKHGEIILIPYPFVFTLYVEMKWFHE
notes: MAJIN, human, the part in the MAJIN-TERB2 core complex; also called T0980s1; H0980 subunit A
With B2, in [11], the “stoichiometry N” value was 2.
